Test results: PMC9527590, “Functional analysis of the N‐terminal region of acetylxylan esterase from Caldanaerobacter subterraneus subsp. tengcongensis” (FEBS Open Bio, 2022)

Experiments:
[1] = SEC; analytical SEC, Superdex 75 Increase 10/300 GL; 100 μL of protein solution (1.0 mg·mL^−1); 20 mM Tris–HCl (pH 8.0), 150 mM NaCl; masses from a calibration standard; self-association, dimer to monomers
[2] = molecular target: TTE^Δ110, TTE0866 with the N-terminal 110 residues truncated (Caldanaerobacter subterraneus subsp. tengcongensis); experiment: as above

stoichiometry N [2]	Substance	percent dimer (SEC peak area) [1]
	TTE^Δ110, TTE0866 with the N-terminal 110 residues truncated	the dimer‐to‐monomer percentage of TTE^Δ110 was 20% and 80%
2	TTE^Δ110, TTE0866 with the N-terminal 110 residues truncated (domain or fragment)	
